Consider seven molecules from patent publication US12281162 (LANOVA MEDICINES DEVELOPMENT, dated 2025).

The chains are these.
B1: 6-H3L3 (antibody, V domains shown)
VH: QVQLVQSGAEVAKPGASVKVSCKASGYTFTTYTMHWVKQAPGQGLEWLGYINPSSGYTNYNQKFKDRVTMTADTSTSTVYMELSSLRSEDTAVYYCASLRSRGYFDYWGQGTLVTVSS
VL: DIQMTQSPSFLSTSVGDRVTITCKASQNVGTAVVWYQQKPGKSPKLLIYSASNRYTGVPSRFSGSGSGTEFTLTISSMQPEDFATFFCQQYSSYPYTFGQGTKLEIK
notes: humanized 6G10D9, VH v3 x VL v3
B2: 6-H4L3 (antibody, V domains shown)
VH: B1 VH with V20M, M70L, V114L
VL: B1 VL
notes: humanized 6G10D9, VH v4 x VL v3
B3: 6-H1L1 (antibody, V domains shown)
VH: B1 VH with A12K, K38R, L48M, A72R, A97S, S98R
VL: B1 VL with M4L, T13A, S43A, M78L, F86Y, F87Y
notes: humanized 6G10D9, VH v1 x VL v1
B4: 6-H4L2 (antibody, V domains shown)
VH: B1 VH with V20M, M70L, V114L
VL: B1 VL with M4L, M78L, F87Y
notes: humanized 6G10D9, VH v4 x VL v2
B5: 6-H3L1 (antibody, V domains shown)
VH: B1 VH
VL: B1 VL with M4L, T13A, S43A, M78L, F86Y, F87Y
notes: humanized 6G10D9, VH v3 x VL v1
B6: 6-H4L1 (antibody, V domains shown)
VH: B1 VH with V20M, M70L, V114L
VL: B1 VL with M4L, T13A, S43A, M78L, F86Y, F87Y
notes: humanized 6G10D9, VH v4 x VL v1
B7: 6-H3L2 (antibody, V domains shown)
VH: B1 VH
VL: B1 VL with M4L, M78L, F87Y
notes: humanized 6G10D9, VH v3 x VL v2

Changes are numbered by the printed parent chain.

T1 sequence (Q9NZD1 whole entry): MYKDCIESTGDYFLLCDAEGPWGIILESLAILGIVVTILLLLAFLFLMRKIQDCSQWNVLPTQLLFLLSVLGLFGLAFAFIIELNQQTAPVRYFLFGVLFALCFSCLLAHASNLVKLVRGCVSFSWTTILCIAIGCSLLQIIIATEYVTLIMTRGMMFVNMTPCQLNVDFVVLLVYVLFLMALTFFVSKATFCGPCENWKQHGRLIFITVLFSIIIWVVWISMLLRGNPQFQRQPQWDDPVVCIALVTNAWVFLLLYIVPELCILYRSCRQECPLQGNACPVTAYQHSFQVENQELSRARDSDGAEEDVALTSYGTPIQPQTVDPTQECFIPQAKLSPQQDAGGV

The first assay concerns the target T1, human G-protein-coupled receptor family C group 5 member D (GPRC5D) (human, UniProt Q9NZD1 1-345).
T1 construct: whole, on cells; also called human GPRC5D protein
The assay is described as follows: FACS, NCI-H929 cells. Background: In flow cytometry, cells or beads pass a laser one at a time.
B1 came in with a Bottom of 130, a LogEC50 of 1.47, a Span of 21700 and a Top of 21900.

Molecule B2 showed a Bottom of 80, a LogEC50 of 1.61, a Span of 28900 and a Top of 29000.

A further assay concerns the target T1, human G-protein-coupled receptor family …. The assay is described as follows: FACS, CHO-K1/GPRC5D.
The molecule B3 had a Bottom of 193, a LogEC50 of approximately 3.1, a Span of approximately 6200 and a Top of approximately 6400.

In turn, B4 came in with a Bottom of 9.56, a LogEC50 of 1.98, a Span of 39400 and a Top of 39400.

B5 came in with a Bottom of -205, a LogEC50 of 2.35, a Span of 74500 and a Top of 74300.

B6 had a Bottom of 61.5, a LogEC50 of 1.65, a Span of 50200 and a Top of 50300.

Turning to B1, the Bottom is 3990, the LogEC50 amounted to 0.955, the Span is 115000 and the Top stood at 119000.

On to B2, for which the Bottom is 2340, the LogEC50 stood at 0.905, the Span is 124000 and the Top is 126000.

The molecule B7 came in with a Bottom of 68.9, a LogEC50 of 2.24, a Span of 47400 and a Top of 47500.

The target is the same in the next assay. Kind of assay: FACS, CHO-K1/human GPRC5D.
Take B1: the Bottom was found to be 172, the LogEC50 was determined as 1.41, the Span is 134000 and the Top was found to be 134000.

Molecule B2 gave a Bottom of 109, a LogEC50 of 1.42, a Span of 146000 and a Top of 146000.
